From US20250197467A1
Where two headings read alike, the source gives them in different places. Each block holds one substance with its values, some of them ahead of it.

How the values were obtained:
[1] = target: Composition E, MMP9-treated (Homo sapiens (Human)) (UniProt Q14116)
[2] = target: Composition S (Homo sapiens (Human)) (UniProt Q14116)
[3] = target: C086 (SEQ ID NO: 30) (Homo sapiens (Human)) (UniProt Q14116); assay: cell-based or functional assay
C143 (human) = C143 (human) (UniProt Q14116); assay: cell-based or functional assay
C144 (human) = C144 (human) (UniProt Q14116); assay: cell-based or functional assay
C145 (human) = C145 (human) (UniProt Q14116); assay: cell-based or functional assay
[4] = target: C146 (Homo sapiens (Human)) (UniProt Q14116); assay: cell-based or functional assay
Chain of C146 (Homo sapiens (Human)) (Q14116 other isoform, or with tags, fused parts or gaps): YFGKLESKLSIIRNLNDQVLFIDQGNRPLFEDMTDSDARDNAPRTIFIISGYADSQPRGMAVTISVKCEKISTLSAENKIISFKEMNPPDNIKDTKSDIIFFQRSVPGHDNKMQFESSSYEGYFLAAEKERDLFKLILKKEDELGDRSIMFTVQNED

C147 (human) = C147 (human) (UniProt Q14116); assay: cell-based or functional assay
C148 (human) = C148 (human) (UniProt Q14116); assay: cell-based or functional assay
C149 (human) = C149 (human) (UniProt Q14116); assay: cell-based or functional assay
C150 (human) = C150 (human) (UniProt Q14116); assay: cell-based or functional assay
C151 (human) = C151 (human) (UniProt Q14116); assay: cell-based or functional assay
Chain of C151 (human) (Q14116 other isoform, or with tags, fused parts or gaps): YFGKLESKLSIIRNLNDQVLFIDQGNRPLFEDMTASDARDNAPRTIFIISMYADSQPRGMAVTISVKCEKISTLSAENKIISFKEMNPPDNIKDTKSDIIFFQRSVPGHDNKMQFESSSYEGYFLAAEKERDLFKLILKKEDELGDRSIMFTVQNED

C152 (human) = C152 (human) (UniProt Q14116); assay: cell-based or functional assay
C153 (human) = C153 (human) (UniProt Q14116); assay: cell-based or functional assay
Chain of C153 (human) (Q14116 other isoform, or with tags, fused parts or gaps): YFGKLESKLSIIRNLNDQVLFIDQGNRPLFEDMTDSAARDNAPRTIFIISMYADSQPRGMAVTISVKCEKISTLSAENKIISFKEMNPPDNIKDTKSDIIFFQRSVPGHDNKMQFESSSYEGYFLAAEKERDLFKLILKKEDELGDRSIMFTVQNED

C154 (human) = C154 (human) (UniProt Q14116); assay: cell-based or functional assay
C155 (human) = C155 (human) (UniProt Q14116); assay: cell-based or functional assay
C156 (human) = C156 (human) (UniProt Q14116); assay: cell-based or functional assay
C157 (human) = C157 (human) (UniProt Q14116); assay: cell-based or functional assay
C158 (human) = C158 (human) (UniProt Q14116); assay: cell-based or functional assay
C159 (human) = C159 (human) (UniProt Q14116); assay: cell-based or functional assay
C160 (human) = C160 (human) (UniProt Q14116); assay: cell-based or functional assay
C161 (human) = C161 (human) (UniProt Q14116); assay: cell-based or functional assay
C162 (human) = C162 (human) (UniProt Q14116); assay: cell-based or functional assay
C163 (human) = C163 (human) (UniProt Q14116); assay: cell-based or functional assay
Chain of C163 (human) (Q14116 other isoform, or with tags, fused parts or gaps): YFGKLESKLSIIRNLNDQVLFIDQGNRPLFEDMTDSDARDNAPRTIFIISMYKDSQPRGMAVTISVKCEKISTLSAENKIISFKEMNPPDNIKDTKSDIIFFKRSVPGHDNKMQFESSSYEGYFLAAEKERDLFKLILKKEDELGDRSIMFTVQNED

C164 (human) = C164 (human) (UniProt Q14116); assay: cell-based or functional assay
C165 (human) = C165 (human) (UniProt Q14116); assay: cell-based or functional assay
C166 (human) = C166 (human) (UniProt Q14116); assay: cell-based or functional assay
C167 (human) = C167 (human) (UniProt Q14116); assay: cell-based or functional assay
Chain of C167 (human) (Q14116 other isoform, or with tags, fused parts or gaps): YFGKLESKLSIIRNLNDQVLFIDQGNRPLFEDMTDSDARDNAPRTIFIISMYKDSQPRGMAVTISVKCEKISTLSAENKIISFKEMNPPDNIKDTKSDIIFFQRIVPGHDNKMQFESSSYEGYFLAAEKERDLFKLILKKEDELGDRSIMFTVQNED

C168 (human) = C168 (human) (UniProt Q14116); assay: cell-based or functional assay
[5] = target: C190 (Homo sapiens (Human)) (UniProt Q14116); assay: cell-based or functional assay
[6] = target: IL-18 WT (SEQ ID NO: 1) (human) (UniProt Q14116); assay: cell-based or functional assay
Chain of IL-18 WT (SEQ ID NO: 1) (human) (Q14116 37-193): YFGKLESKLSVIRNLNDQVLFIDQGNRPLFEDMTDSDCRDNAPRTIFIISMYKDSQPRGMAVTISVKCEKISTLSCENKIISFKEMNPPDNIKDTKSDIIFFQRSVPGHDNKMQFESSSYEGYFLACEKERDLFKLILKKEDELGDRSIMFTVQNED

[7] = target: SEQ ID NO 34 (Homo sapiens (Human)) (UniProt Q14116); assay: cell-based or functional assay
Chain of SEQ ID NO 34 (Homo sapiens (Human)) (Q14116 other isoform, or with tags, fused parts or gaps): as the sequence (Q14116 37-193) above, with E6K, K53A, S55A counted along it

[8] = target: SEQ ID NO 35 (Homo sapiens (Human)) (UniProt Q14116); assay: cell-based or functional assay
Chain of SEQ ID NO 35 (Homo sapiens (Human)) (Q14116 other isoform, or with tags, fused parts or gaps): as the sequence (Q14116 37-193) above, with Y1G, F2A, E6K, M51G, K53A, D54A, S55A, T63A counted along it

[9] = target: SEQ ID NO 36 (Homo sapiens (Human)) (UniProt Q14116); assay: cell-based or functional assay
[10] = target: SEQ ID NO 37 (Homo sapiens (Human)) (UniProt Q14116); assay: cell-based or functional assay
[11] = target: SEQ ID NO 38 (Homo sapiens (Human)) (UniProt Q14116); assay: cell-based or functional assay
Chain of SEQ ID NO 38 (Homo sapiens (Human)) (Q14116 other isoform, or with tags, fused parts or gaps): as the sequence (Q14116 37-193) above, with E6K counted along it

[12] = target: SEQ ID NO 39 (Homo sapiens (Human)) (UniProt Q14116); assay: cell-based or functional assay
[13] = target: SEQ ID NO 4 (Homo sapiens (Human)) (UniProt Q14116); assay: cell-based or functional assay
[14] = target: SEQ ID NO 40 (Homo sapiens (Human)) (UniProt Q14116); assay: cell-based or functional assay
[15] = target: SEQ ID NO 41 (Homo sapiens (Human)) (UniProt Q14116); assay: cell-based or functional assay
[16] = target: SEQ ID NO 42 (Homo sapiens (Human)) (UniProt Q14116); assay: cell-based or functional assay
[17] = target: SEQ ID NO 43 (Homo sapiens (Human)) (UniProt Q14116); assay: cell-based or functional assay
[18] = target: SEQ ID NO 46 (Homo sapiens (Human)) (UniProt Q14116); assay: cell-based or functional assay
Chain of SEQ ID NO 46 (Homo sapiens (Human)) (Q14116 other isoform, or with tags, fused parts or gaps): as the sequence (Q14116 37-193) above, with E6K, M51G, K53A, S55A counted along it

[19] = target: SEQ ID NO 47 (Homo sapiens (Human)) (UniProt Q14116); assay: cell-based or functional assay
Chain of SEQ ID NO 47 (Homo sapiens (Human)) (Q14116 other isoform, or with tags, fused parts or gaps): as the sequence (Q14116 37-193) above, with C38S, C68S, C76S, C127S counted along it

[20] = target: SEQ ID NO 48 (Homo sapiens (Human)) (UniProt Q14116); assay: cell-based or functional assay
[21] = target: SEQ ID NO 5 (Homo sapiens (Human)) (UniProt Q14116); assay: cell-based or functional assay
[22] = target: SEQ ID NO 50 (Homo sapiens (Human)) (UniProt Q14116); assay: cell-based or functional assay
Chain of SEQ ID NO 50 (Homo sapiens (Human)) (Q14116 other isoform, or with tags, fused parts or gaps): as the sequence (Q14116 37-193) above, with E6K, K53A, T63A counted along it

[23] = target: SEQ ID NO 51 (Homo sapiens (Human)) (UniProt Q14116); assay: cell-based or functional assay
[24] = target: SEQ ID NO 52 (Homo sapiens (Human)) (UniProt Q14116); assay: cell-based or functional assay
[25] = target: SEQ ID NO 53 (Homo sapiens (Human)) (UniProt Q14116); assay: cell-based or functional assay
[26] = target: SEQ ID NO 54 (Homo sapiens (Human)) (UniProt Q14116); assay: cell-based or functional assay
Chain of SEQ ID NO 54 (Homo sapiens (Human)) (Q14116 other isoform, or with tags, fused parts or gaps): as the sequence (Q14116 37-193) above, with E6K, C38S, K53A, C68S, K70C, C76S, C127S counted along it

[27] = target: SEQ ID NO 55 (Homo sapiens (Human)) (UniProt Q14116); assay: cell-based or functional assay
[28] = target: SEQ ID NO 57 (Homo sapiens (Human)) (UniProt Q14116); assay: cell-based or functional assay
[29] = target: SEQ ID NO 59 (Homo sapiens (Human)) (UniProt Q14116); assay: cell-based or functional assay
[30] = target: SEQ ID NO 6 (Homo sapiens (Human)) (UniProt Q14116); assay: cell-based or functional assay
[31] = target: SEQ ID NO 60 (Homo sapiens (Human)) (UniProt Q14116); assay: cell-based or functional assay
Chain of SEQ ID NO 60 (Homo sapiens (Human)) (Q14116 other isoform, or with tags, fused parts or gaps): as the sequence (Q14116 37-193) above, with E6K, C38Q, K53A counted along it

[32] = target: SEQ ID NO 62 (Homo sapiens (Human)) (UniProt Q14116); assay: cell-based or functional assay
Chain of SEQ ID NO 62 (Homo sapiens (Human)) (Q14116 other isoform, or with tags, fused parts or gaps): as the sequence (Q14116 37-193) above, with E6K, C38A, K53A, C127A counted along it

[33] = target: SEQ ID NO 9 (Homo sapiens (Human)) (UniProt Q14116); assay: cell-based or functional assay
[34] = target: His-tagged human IL-18BP (human) (UniProt O95998); assay: AlphaLISA of free IL-18BP
Chain of His-tagged human IL-18BP (human) (O95998 31-194): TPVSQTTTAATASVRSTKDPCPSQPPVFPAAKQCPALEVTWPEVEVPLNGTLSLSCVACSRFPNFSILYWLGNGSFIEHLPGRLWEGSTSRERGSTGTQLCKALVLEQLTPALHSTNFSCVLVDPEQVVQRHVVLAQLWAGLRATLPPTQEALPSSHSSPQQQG

[35] = target: His-tagged human IL-18BP (human) (UniProt O95998); assay: AlphaLISA of free IL-18BP; remark: listed apart in the source
[36] = target: His-tagged human IL-18BP (human) (UniProt O95998); assay: AlphaLISA of free IL-18BP (analyte titrated in assay buffer against 5 ng/ml His-tagged human IL-18BP; falling signal = IL-18BP bound)

Chain of IL-18 WT (SEQ ID NO: 1) (Q14116 37-193): as the sequence (Q14116 37-193) above
Chain of Fc-fused human IL-18 binding protein isoform a (IL-18BPa) (O95998 31-194 limits assumed): as the sequence (O95998 31-194) above
Chain of Composition E, MMP9-treated (Homo sapiens (Human)) (heavy, as listed by the source, chain 1 of 3): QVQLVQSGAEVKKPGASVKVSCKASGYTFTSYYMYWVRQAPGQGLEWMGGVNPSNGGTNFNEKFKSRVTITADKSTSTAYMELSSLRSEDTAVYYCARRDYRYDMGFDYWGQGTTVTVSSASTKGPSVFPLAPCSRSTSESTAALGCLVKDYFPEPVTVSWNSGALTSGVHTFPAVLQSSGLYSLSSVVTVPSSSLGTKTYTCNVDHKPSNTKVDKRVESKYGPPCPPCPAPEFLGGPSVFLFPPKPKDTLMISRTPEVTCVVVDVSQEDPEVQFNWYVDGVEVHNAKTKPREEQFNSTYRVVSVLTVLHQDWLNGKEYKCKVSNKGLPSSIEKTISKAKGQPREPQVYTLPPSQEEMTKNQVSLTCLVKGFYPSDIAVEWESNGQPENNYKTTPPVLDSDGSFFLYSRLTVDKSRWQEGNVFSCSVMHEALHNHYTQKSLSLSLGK
Chain of Composition E, MMP9-treated (Homo sapiens (Human)) (light, as listed by the source, chain 2 of 3): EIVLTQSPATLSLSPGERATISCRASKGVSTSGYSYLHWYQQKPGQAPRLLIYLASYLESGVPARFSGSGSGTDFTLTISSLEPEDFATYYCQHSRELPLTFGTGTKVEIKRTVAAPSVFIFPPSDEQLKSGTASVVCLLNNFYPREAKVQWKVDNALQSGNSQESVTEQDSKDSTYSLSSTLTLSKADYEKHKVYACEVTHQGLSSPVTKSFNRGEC
Chain of Composition E, MMP9-treated (Homo sapiens (Human)) (Q14116 other isoform, or with tags, fused parts or gaps, chain 3 of 3): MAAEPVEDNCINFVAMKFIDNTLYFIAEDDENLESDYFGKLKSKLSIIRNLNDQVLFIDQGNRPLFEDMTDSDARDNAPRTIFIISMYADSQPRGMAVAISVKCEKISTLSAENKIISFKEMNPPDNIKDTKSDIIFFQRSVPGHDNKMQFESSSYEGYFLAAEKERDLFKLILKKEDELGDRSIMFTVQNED
Chain of Composition S (Homo sapiens (Human)) (heavy, as listed by the source, chain 1 of 3): as the sequence (heavy, as listed by the source, chain 1 of 3) above
Chain of Composition S (Homo sapiens (Human)) (light, as listed by the source, chain 2 of 3): as the sequence (light, as listed by the source, chain 2 of 3) above
Chain of Composition S (Homo sapiens (Human)) (Q14116 other isoform, or with tags, fused parts or gaps, chain 3 of 3): as the sequence (Q14116 37-193) above, with E6K, V11I, C38A, K53A, T63A, C76A, C127A counted along it

- IC50 (read off the curve), PD-1 positive NK-92 cells [1]: 8 nM
- IC50 (read off the curve), PD-1 negative NK-92 cells [2]: 8 nM
- IL-18BP-mediated IFNγ inhibition NK-92 assay IC50 [3]: 22.5 nM
- IC50 (IL-18BP inhibition of IFNγ, NK92) (C143 (human)): 1.62 nM
- IC50 (IL-18BP inhibition of IFNγ, NK92) (C144 (human)): 7.52 nM
- IC50 (IL-18BP inhibition of IFNγ, NK92) (C145 (human)): 10.2 nM
- IC50 (IL-18BP inhibition of IFNγ, NK92) [4]: 733 nM
- IC50 (IL-18BP inhibition of IFNγ, NK92) (C147 (human)): 47.6 nM
- IC50 (IL-18BP inhibition of IFNγ, NK92) (C148 (human)): 5.05 nM
- IC50 (IL-18BP inhibition of IFNγ, NK92) (C149 (human)): 1.17 nM
- IC50 (IL-18BP inhibition of IFNγ, NK92) (C150 (human)): 21.3 nM
- IC50 (IL-18BP inhibition of IFNγ, NK92) (C151 (human)): 3.62 nM
- IC50 (IL-18BP inhibition of IFNγ, NK92) (C152 (human)): 7.85 nM
- IC50 (IL-18BP inhibition of IFNγ, NK92) (C153 (human)): 2.22 nM
- IC50 (IL-18BP inhibition of IFNγ, NK92) (C154 (human)): 3.71 nM
- IC50 (IL-18BP inhibition of IFNγ, NK92) (C155 (human)): 3.23 nM
- IC50 (IL-18BP inhibition of IFNγ, NK92) (C156 (human)): 0.681 nM
- IC50 (IL-18BP inhibition of IFNγ, NK92) (C157 (human)): 6.08 nM
- IC50 (IL-18BP inhibition of IFNγ, NK92) (C158 (human)): 3.98 nM
- IC50 (IL-18BP inhibition of IFNγ, NK92) (C159 (human)): 1.81 nM
- IC50 (IL-18BP inhibition of IFNγ, NK92) (C160 (human)): 3.18 nM
- IC50 (IL-18BP inhibition of IFNγ, NK92) (C161 (human)): 1.07 nM
- IC50 (IL-18BP inhibition of IFNγ, NK92) (C162 (human)): 7.29 nM
- IC50 (IL-18BP inhibition of IFNγ, NK92) (C163 (human)): 0.823 nM
- IC50 (IL-18BP inhibition of IFNγ, NK92) (C164 (human)): 0.456 nM
- IC50 (IL-18BP inhibition of IFNγ, NK92) (C165 (human)): 0.885 nM
- IC50 (IL-18BP inhibition of IFNγ, NK92) (C166 (human)): 0.44 nM
- IC50 (IL-18BP inhibition of IFNγ, NK92) (C167 (human)): 0.809 nM
- IC50 (IL-18BP inhibition of IFNγ, NK92) (C168 (human)): 0.176 nM
- IL-18BP-mediated IFNγ inhibition NK-92 assay IC50 [5]: 4.33 nM
- IC50 (IL-18BP inhibition of IFNγ, NK92) [6]: 1.47 nM
- IL-18BP-mediated IFNγ inhibition NK-92 assay IC50 [6]: 0.403 nM
- IC50 (IL-18BP inhibition of IFNγ, NK92) [7]: 229 nM
- IC50 (IL-18BP inhibition of IFNγ, NK92) [8]: > 55 nM
- IC50 (IL-18BP inhibition of IFNγ, NK92) [9]: 27.3 nM
- IC50 (IL-18BP inhibition of IFNγ, NK92) [10]: 4.46 nM
- IC50 (IL-18BP inhibition of IFNγ, NK92) [11]: 7.79 nM
- IC50 (IL-18BP inhibition of IFNγ, NK92) [12]: > 703 nM
- IC50 (IL-18BP inhibition of IFNγ, NK92) [13]: 396 nM
- IC50 (IL-18BP inhibition of IFNγ, NK92) [14]: 15 nM
- IC50 (IL-18BP inhibition of IFNγ, NK92) [15]: 37.3 nM
- IC50 (IL-18BP inhibition of IFNγ, NK92) [16]: 1060 nM
- IC50 (IL-18BP inhibition of IFNγ, NK92) [17]: 27.8 nM
- IC50 (IL-18BP inhibition of IFNγ, NK92) [18]: 0.189 nM
- IC50 (IL-18BP inhibition of IFNγ, NK92) [19]: 0.444 nM
- IC50 (IL-18BP inhibition of IFNγ, NK92) [20]: 0.114 nM
- IC50 (IL-18BP inhibition of IFNγ, NK92) [21]: 62.4 nM
- IC50 (IL-18BP inhibition of IFNγ, NK92) [22]: > 1000 nM
- IC50 (IL-18BP inhibition of IFNγ, NK92) [23]: 0.239 nM
- IC50 (IL-18BP inhibition of IFNγ, NK92) [24]: 47.1 nM
- IC50 (IL-18BP inhibition of IFNγ, NK92) [25]: 18.2 nM
- IC50 (IL-18BP inhibition of IFNγ, NK92) [26]: 23.5 nM
- IC50 (IL-18BP inhibition of IFNγ, NK92) [27]: > 1000 nM
- IC50 (IL-18BP inhibition of IFNγ, NK92) [28]: 146 nM
- IC50 (IL-18BP inhibition of IFNγ, NK92) [29]: 654 nM
- IC50 (IL-18BP inhibition of IFNγ, NK92) [30]: 5.85 nM
- IC50 (IL-18BP inhibition of IFNγ, NK92) [31]: 780 nM
- IC50 (IL-18BP inhibition of IFNγ, NK92) [32]: 284 nM
- IC50 (IL-18BP inhibition of IFNγ, NK92) [33]: 961 nM
Substance: Fc-fused human IL-18 binding protein isoform a (IL-18BPa) (from UniProt O95998 31-194) (Fc fusion)

- Kd [34]: 0.403 nM
- Kd [35]: 0.67 nM
- IC50 (read off the curve) [36]: 0.08 nM
Substance: IL-18 WT (SEQ ID NO: 1) (from UniProt Q14116 37-193) (ligand)
